Where no end group is shown, it is not given here.
What was measured:
human plasma fibronectin [1] = molecular target: T1, human plasma fibronectin (human, UniProt P02751-8 32-2296, limits assumed); test: ELISA; ECM protein coated at 100 nM, soluble protein 0-100 nM, one-site fit
T1 construct: Coated on ELISA plates at 100 nM; also called Fn
Method: (§1) ELISA plates (Medium binding, Greiner bio-one) were coated with 100 nM of ECM proteins in 50 μl of PBS for 1 h at 37° C.; human plasma fibronectin (Sigma), human vitronectin (Peprotech), human tenascin C (R&D Systems), human fibrinogen (Enzyme Research Laboratories). Then, wells were washed with PBS-T (PBS with 0.05% Tween-20) and blocked with 300 l PBS-T containing 1% BSA for 1 h at room temperature. ECM and control wells (no ECM and blocked with BSA) were further incubated 1 h at room temperature with solutions of murine PDGF-BB (Peprotech), IL-1Ra (R&D Systems), or PIGF₁₂₃₋₁₄₁-fused proteins at concentrations ranging from 0 to 100 nM (50 μl in PBS-T containing 0.1% BSA; PROKEEP tubes, Watson bio lab). Then, wells were washed 3 times with PBS-T and bound PDGF-BB and IL-1Ra variants were detected using biotinylated antibodies in PBS-T containing 0.1% BSA. Antibodies used were from PDGF-BB DuoSet ELISA (R&D Systems, DY8464) for PDGF-BB and IL-1ra/IL-1F3 DuoSet ELISA (R&D Systems, DY480) for IL-1Ra. To calculate the dissociation constants (KD) specific-binding values were fitted with a one site specific binding model using A₄₅₀ nm=Bmax*[growth factors or IL-1Ra variants]/(KD+[growth factors or IL-1Ra variants]).

human vitronectin [2] = molecular target: T2, human vitronectin (human, UniProt P04004 20-478); test: as above
T2 construct: Coated on ELISA plates at 100 nM; also called Vn
T2 sequence (P04004 20-478 limits assumed): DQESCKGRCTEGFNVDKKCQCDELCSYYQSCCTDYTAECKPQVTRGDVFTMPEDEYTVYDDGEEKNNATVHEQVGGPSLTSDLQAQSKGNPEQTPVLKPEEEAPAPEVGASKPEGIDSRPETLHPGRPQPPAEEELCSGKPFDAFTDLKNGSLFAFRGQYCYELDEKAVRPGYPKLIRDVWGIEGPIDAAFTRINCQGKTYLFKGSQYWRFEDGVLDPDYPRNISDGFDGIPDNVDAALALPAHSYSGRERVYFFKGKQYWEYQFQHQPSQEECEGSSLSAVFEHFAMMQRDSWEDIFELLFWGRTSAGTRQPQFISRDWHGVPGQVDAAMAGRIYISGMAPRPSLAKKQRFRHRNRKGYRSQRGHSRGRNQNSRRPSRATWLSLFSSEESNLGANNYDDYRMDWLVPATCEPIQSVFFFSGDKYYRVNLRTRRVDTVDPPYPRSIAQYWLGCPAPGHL
Method: as §1

human tenascin C [3] = molecular target: T3, human tenascin C (human, UniProt P24821 23-2201, limits assumed); test: as above
T3 construct: Coated on ELISA plates at 100 nM; also called TnC; Tnc
T3 sequence (P24821 23-2201 limits assumed): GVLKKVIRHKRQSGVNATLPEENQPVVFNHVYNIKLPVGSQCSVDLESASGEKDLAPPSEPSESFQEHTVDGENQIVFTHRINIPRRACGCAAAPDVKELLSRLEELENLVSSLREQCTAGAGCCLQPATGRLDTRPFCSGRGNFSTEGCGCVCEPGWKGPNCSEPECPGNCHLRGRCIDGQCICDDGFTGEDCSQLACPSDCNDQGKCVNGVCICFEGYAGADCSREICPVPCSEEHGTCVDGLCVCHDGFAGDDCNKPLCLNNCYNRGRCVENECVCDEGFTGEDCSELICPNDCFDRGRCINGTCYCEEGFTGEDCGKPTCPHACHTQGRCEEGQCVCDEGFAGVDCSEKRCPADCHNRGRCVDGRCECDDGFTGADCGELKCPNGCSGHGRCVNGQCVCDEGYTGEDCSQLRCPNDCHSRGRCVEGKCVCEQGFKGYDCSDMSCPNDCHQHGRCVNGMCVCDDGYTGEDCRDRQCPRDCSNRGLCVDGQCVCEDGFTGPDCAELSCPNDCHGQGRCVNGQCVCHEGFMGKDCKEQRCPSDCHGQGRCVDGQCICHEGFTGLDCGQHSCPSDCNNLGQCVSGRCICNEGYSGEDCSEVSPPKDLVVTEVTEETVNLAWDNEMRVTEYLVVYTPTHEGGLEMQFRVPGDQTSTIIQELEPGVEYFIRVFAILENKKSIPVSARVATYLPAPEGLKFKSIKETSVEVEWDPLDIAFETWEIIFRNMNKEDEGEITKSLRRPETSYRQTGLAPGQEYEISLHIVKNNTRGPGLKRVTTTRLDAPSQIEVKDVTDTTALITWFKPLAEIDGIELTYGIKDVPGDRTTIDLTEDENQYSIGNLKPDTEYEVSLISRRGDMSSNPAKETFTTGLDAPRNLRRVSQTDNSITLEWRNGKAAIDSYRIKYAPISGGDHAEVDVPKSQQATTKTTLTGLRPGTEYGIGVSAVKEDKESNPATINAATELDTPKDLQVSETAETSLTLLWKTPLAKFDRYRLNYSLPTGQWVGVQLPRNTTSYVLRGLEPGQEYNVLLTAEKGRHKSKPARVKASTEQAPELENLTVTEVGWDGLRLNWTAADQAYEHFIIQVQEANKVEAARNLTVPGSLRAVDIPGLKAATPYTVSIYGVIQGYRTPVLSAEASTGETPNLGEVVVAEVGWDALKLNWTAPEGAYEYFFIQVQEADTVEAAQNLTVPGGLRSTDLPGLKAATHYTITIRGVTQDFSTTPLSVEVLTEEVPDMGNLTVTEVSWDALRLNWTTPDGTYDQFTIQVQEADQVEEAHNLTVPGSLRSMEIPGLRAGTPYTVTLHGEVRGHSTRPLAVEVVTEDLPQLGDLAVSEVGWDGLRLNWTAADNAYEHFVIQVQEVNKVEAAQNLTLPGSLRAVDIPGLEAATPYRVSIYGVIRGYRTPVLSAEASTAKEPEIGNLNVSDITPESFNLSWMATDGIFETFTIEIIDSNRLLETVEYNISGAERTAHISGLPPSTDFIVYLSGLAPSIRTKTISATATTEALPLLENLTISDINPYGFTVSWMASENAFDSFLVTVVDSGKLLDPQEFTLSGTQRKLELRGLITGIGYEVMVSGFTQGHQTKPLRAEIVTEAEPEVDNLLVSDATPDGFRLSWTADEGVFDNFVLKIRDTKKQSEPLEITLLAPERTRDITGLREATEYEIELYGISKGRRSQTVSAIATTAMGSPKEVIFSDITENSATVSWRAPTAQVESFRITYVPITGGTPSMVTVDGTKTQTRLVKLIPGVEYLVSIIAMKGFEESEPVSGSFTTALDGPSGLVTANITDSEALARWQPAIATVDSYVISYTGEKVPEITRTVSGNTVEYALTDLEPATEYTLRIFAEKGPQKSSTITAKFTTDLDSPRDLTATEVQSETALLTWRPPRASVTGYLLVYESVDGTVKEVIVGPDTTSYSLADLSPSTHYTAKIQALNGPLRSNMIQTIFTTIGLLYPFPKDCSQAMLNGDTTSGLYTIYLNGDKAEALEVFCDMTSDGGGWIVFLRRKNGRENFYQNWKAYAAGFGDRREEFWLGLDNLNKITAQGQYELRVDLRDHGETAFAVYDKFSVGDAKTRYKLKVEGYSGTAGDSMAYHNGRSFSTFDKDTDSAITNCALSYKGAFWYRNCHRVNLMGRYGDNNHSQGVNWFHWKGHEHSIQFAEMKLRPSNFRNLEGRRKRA
Method: as §1

human fibrinogen [4] = molecular target: T4, human fibrinogen (human, UniProt P02671 20-644; P02675 31-491; P02679 27-437, limits assumed); test: as above
T4 construct: Coated on ELISA plates at 100 nM; also called Fg
T4 sequence (looked up) 1: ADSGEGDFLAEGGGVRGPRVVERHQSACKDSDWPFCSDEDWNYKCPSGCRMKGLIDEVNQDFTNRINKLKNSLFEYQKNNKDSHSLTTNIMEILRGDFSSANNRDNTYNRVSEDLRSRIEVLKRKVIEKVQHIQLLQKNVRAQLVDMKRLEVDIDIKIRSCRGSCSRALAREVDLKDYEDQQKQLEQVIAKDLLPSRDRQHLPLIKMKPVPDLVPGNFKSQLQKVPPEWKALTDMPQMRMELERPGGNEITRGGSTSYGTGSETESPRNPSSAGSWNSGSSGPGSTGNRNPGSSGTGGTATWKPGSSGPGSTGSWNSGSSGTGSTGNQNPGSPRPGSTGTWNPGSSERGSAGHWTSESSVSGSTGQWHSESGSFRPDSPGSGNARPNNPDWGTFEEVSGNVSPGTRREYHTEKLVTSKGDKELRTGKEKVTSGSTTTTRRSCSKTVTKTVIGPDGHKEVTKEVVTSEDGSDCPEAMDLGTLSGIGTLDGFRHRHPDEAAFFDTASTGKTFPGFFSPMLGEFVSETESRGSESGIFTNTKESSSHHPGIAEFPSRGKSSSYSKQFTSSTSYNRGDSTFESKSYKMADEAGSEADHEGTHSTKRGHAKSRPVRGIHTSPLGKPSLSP
T4 sequence (looked up) 2: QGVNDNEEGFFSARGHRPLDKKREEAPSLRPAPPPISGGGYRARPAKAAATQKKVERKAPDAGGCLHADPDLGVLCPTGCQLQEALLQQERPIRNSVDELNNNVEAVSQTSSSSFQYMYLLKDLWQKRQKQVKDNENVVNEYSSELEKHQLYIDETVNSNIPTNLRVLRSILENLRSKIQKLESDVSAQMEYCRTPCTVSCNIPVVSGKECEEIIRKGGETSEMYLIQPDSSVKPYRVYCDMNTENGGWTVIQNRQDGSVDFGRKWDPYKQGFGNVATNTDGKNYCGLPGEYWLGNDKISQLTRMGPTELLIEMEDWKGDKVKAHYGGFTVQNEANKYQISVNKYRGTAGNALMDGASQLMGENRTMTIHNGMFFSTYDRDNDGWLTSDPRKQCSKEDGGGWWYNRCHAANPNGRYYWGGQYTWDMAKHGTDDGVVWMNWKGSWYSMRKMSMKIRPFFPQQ
T4 sequence (looked up) 3: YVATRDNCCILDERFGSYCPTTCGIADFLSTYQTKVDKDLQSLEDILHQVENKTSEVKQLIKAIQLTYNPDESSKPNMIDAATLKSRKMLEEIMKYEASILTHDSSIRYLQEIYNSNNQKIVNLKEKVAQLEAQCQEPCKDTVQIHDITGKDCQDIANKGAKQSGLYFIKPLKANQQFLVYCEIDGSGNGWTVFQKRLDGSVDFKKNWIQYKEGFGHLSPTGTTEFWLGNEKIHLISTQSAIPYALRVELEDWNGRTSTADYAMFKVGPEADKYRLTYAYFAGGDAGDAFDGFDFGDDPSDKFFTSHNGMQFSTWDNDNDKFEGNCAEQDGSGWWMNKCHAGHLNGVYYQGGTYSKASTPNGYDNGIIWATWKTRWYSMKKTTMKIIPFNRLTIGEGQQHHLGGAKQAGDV
Method: as §1

human plasma fibronectin [5] = molecular target: T1, human plasma fibronectin; test: ELISA of fragments
human vitronectin [6] = molecular target: T2, human vitronectin; test: ELISA of fragments
human fibrinogen [7] = molecular target: T4, human fibrinogen; test: ELISA of fragments
human plasma fibronectin [8] = molecular target: T1, human plasma fibronectin; test: ELISA, one site specific binding fit
human vitronectin [9] = molecular target: T2, human vitronectin; test: ELISA, one site specific binding fit
human plasma fibronectin [10] = molecular target: T1, human plasma fibronectin; test: ELISA; GST-fused fragment at 100 nM on coated ECM protein, anti-GST detection
Method: (§2) ELISA plates (96-Well Medium Binding, Greiner bio-one) were coated with solutions of 100 nM of human plasma fibronectin (Sigma), human vitronectin (Peprotech), human tenascin C (R&D Systems), or human fibrinogen (Enzyme Research Laboratories) in PBS for 1 h at 37° C. Wells were washed with washing buffer (PBS-T, PBS with 0.05% Tween-20) and blocked with 1% BSA in PBS-T for 1 h at room temperature. Then, wells were incubated with 100 nM of GST-fused PIGF fragments (in PBS-T with 0.1% BSA) for 1 h at room temperature. GST (100 nM) was used as negative control. Wells were washed 3 times with washing buffer and incubated with 0.1 μg/ml of HRP-conjugated antibody against GST (GE Healthcare, RPN1236V) in PBS-T with 0.1% BSA for 45 min at room temperature. Wells were washed 3 times with PBS-T and detection was done with tetramethylbenzidine substrate and measurement of the absorbance at 450 nm.

human vitronectin [11] = molecular target: T2, human vitronectin; test: as above
Method: as §2

human fibrinogen [12] = molecular target: T4, human fibrinogen; test: as above
Method: as §2

human tenascin C [13] = molecular target: T3, human tenascin C; test: ELISA, one site specific binding fit
human fibrinogen [14] = molecular target: T4, human fibrinogen; test: ELISA, one site specific binding fit

T1 sequence (P02751 other isoform, or with tags, fused parts or gaps limits assumed): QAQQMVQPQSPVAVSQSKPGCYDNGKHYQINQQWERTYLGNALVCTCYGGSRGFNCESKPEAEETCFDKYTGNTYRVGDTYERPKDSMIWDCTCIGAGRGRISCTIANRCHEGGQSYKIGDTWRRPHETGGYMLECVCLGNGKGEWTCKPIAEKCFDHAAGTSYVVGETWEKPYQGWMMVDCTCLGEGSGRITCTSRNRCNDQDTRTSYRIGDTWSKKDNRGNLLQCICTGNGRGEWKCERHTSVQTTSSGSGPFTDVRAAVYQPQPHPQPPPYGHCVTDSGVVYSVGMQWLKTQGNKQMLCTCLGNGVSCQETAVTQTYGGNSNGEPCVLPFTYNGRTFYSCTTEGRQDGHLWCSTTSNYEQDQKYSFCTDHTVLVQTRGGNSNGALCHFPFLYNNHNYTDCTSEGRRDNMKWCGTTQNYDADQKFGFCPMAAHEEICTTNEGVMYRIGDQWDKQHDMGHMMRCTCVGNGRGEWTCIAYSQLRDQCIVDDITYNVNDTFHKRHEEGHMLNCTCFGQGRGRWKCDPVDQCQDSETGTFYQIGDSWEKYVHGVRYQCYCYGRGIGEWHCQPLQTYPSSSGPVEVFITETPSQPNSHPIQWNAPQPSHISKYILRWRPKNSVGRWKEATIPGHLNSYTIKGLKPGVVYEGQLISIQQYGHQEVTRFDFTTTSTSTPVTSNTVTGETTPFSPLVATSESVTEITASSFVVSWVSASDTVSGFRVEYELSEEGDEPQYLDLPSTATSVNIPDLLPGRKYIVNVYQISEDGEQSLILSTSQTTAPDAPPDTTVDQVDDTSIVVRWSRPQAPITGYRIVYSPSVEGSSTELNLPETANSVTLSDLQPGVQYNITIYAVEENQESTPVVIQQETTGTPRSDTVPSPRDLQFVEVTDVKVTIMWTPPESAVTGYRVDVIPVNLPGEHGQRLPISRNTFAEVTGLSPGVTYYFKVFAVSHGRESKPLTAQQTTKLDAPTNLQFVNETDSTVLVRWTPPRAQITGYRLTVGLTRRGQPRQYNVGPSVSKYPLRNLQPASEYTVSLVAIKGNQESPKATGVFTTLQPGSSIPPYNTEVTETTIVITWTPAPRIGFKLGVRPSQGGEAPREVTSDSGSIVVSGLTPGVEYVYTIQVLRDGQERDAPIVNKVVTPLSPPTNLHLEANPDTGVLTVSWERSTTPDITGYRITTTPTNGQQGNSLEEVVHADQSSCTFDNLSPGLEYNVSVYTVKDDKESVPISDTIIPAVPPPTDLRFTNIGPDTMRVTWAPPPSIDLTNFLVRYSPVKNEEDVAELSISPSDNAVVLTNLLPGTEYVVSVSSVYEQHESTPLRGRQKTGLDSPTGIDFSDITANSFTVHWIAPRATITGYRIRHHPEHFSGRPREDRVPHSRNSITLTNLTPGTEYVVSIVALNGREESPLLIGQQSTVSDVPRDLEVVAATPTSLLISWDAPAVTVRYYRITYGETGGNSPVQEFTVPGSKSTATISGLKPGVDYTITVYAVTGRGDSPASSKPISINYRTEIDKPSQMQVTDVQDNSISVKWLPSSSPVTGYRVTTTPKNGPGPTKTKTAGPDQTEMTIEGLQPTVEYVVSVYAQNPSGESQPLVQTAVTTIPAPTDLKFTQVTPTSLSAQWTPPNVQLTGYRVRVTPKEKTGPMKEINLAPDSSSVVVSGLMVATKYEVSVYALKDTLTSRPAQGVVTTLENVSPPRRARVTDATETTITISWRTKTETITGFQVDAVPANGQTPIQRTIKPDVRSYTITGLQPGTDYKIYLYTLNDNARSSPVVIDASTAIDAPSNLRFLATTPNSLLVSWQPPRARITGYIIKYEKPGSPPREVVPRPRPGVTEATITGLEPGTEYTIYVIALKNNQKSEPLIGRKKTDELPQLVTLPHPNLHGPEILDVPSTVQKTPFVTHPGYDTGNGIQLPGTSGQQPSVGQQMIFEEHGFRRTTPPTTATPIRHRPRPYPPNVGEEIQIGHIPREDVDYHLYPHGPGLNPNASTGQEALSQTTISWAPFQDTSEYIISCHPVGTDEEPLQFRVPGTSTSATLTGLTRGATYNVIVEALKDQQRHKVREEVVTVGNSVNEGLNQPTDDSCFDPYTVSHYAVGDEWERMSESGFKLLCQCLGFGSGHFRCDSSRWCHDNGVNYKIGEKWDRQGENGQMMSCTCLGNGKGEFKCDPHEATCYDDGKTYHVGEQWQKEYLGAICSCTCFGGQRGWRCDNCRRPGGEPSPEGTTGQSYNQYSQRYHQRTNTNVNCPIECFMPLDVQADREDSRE

B1: IL-1Ra/PIGF123-141 (other)
chain: MNHKVHHHHHHMRPSGKRPCKMQAFRIWDTNQKTFYLRNNQLIAGYLQGPNIKLEEKIDMVPIDLHSVFLGIHGGKLCLSCAKSGDDIKLQLEEVNITDLSKNKEEDKRFTFIRSEKGPTTSFESAACPGWFLCTTLEADRPVSLTNTPEEPLIVTKFYFQEDQRRRPKGRGKRRREKQRPTD
Work on B1 yielded a Kd (human plasma fibronectin [1]) of 21.9 nM, a Kd (human vitronectin [2]) of 0.7 nM and a Kd (human tenascin C [3]) of 20.7 nM. The Kd (human fibrinogen [4]) was 43.5 nM.

B2: NRTN146-157 fragment (GST-fused construct from pGEX6P-1) (peptide)
chain: RRLRQRRRLRRE
modifications: also: fused to GST (vector linker letters not given here), letters not given here
notes: Cloned into pGEX6P-1, expressed in E. coli BL21, and purified on GSTrap and His-tag columns; not shown: GST encoded by the expression vector pGEX6P-1; a His tag is implied by purification on a His-tag HP column
B2: binds (human plasma fibronectin [5]); binds (human vitronectin [6]); binds (human fibrinogen [7]).

B3: PDGF-BB (murine wild-type platelet-derived growth factor-BB) (ligand, UniProt P31240 82-190, looked up)
chain: SLGSLAAAEPAVIAECKTRTEVFQISRNLIDRTNANFLVWPPCVEVQRCSGCCNNRNVQCRASQVQMRPVQVRKIEIVRKKPIFKKATVTLEDHLACKCETIVTPRPVT
notes: also called wild-type PDGF-BB
For B3, the Kd (human plasma fibronectin [1]) was 67.5 nM, the Kd (human vitronectin [2]) was 32.1 nM and the Kd (human tenascin C [3]) was 94.3 nM. The Kd (human fibrinogen [4]) was 206 nM.

B4: neurturin (NRTN) (ligand, UniProt Q99748 96-197, looked up)
chain: ARLGARPCGLRELEVRVSELGLGYASDETVLFRYCAGACEAAARVYDLGLRRLRQRRRLRRERVRAQPCCRPTAYEDEVSFLDAHSRYHTVHELSARECACV
B4 was tested, and the Kd (human plasma fibronectin [8]) was 50.1 nM and the Kd (human vitronectin [9]) was 27.6 nM.

B5: GST-fused PIGF123-141 fragment (peptide)
chain: RRRPKGRGKRRREKQRPTD-6xHis
modifications: not fully specified (N-terminus); also: fused to GST (vector linker letters not given here)
notes: Expressed in E. coli BL21 (DE3), purified on GSTrap and then HisTrap, and used at 100 nM in the ELISA; not shown: glutathione S-transferase (GST) encoded by the expression vector pGEX6P-1; histidine tag (6xHis) added at the C-terminus of the fragment
B5: binds (human plasma fibronectin [10]); binds (human vitronectin [11]); binds (human fibrinogen [12]).

B6: amphiregulin (AREG) (ligand, UniProt P15514 101-198, looked up)
chain: SVRVEQVVKPPQNKTESENTSDKPKRKKKGGKNGKNRRNRKKKNPCNAEFQNFCIHGECKYIEHLEAVTCKCQQEYFGERCGEKSMKTHSMIDSSLSK
B6 showed a Kd (human plasma fibronectin [8]) of 8.6 nM, a Kd (human vitronectin [9]) of 13.8 nM and a Kd (human tenascin C [13]) of 36.8 nM. It also gave a Kd (human fibrinogen [14]) of 8.2 nM.

B7: AREG126-138 fragment (GST-fused construct from pGEX6P-1) (peptide)
chain: RKKKGGKNGKNRR
modifications: also: fused to GST (vector linker letters not given here), letters not given here
notes: as for B2
B7: binds (human plasma fibronectin [5]); binds (human vitronectin [6]); binds (human fibrinogen [7]).

B8: PDGF-BB/PIGF123-141 (other)
chain: SLGSLAAAEPAVIAECKTRTEVFQISRNLIDRTNANFLVWPPCVEVQRCSGCCNNRNVQCRASQVQMRPVQVRKIEIVRKKPIFKKATVTLEDHLACKCETIVTPRPVTRRRPKGRGKRRREKQRPTD
notes: not shown: 6x histidine tag at the N-terminus
Work on B8 yielded a Kd (human plasma fibronectin [1]) of 17.7 nM, a Kd (human vitronectin [2]) of 1.4 nM and a Kd (human tenascin C [3]) of 25 nM. The Kd (human fibrinogen [4]) was 16.7 nM.

B9: Placenta growth factor-2 (PIGF-2) (ligand)
chain: LPAVPPQQWALSAGNGSSEVEVVPFQEVWGRSYCRALERLVDVVSEYPSEVEHMFSPSCVSLLRCTGCCGDENLHCVPVETANVTMQLLKIRSGDRPSYVELTFSQHVRCECRPLREKMKPERRRPKGRGKRRREKQRPTDCHLCGDAVPRR
In the case of B9, the Kd (human plasma fibronectin [8]) is reported as 11.6 nM, the Kd (human vitronectin [9]) is reported as 13.9 nM and the Kd (human tenascin C [13]) is reported as 16.6 nM. For the same binder, the Kd (human fibrinogen [14]) was 9.9 nM.

B10: IL-1Ra (murine wild-type interleukin-1 receptor antagonist) (ligand)
chain: MRPSGKRPCKMQAFRIWDTNQKTFYLRNNQLIAGYLQGPNIKLEEKIDMVPIDLHSVFLGIHGGKLCLSCAKSGDDIKLQLEEVNITDLSKNKEEDKRFTFIRSEKGPTTSFESAACPGWFLCTTLEADRPVSLTNTPEEPLIVTKFYFQEDQ
notes: also called wild-type IL-1Ra; IL-1 receptor antagonist
B10 showed a Kd (human plasma fibronectin [1]) of 129 nM, a Kd (human vitronectin [2]) of 73.2 nM and a Kd (human tenascin C [3]) of 113 nM. The Kd (human fibrinogen [4]) was 663 nM.
